Assay results: PMC9559756

Tests used:
[1] = molecular target: untagged-cpAQP1aa-243 (C-terminally truncated aquaporin 1aa from Anabas testudineus, climbing perch) (Anabas testudineus (climbing perch)); assay: crystal structure; untagged-cpAQP1aa-243, hanging-drop vapor diffusion, 4°C; reservoir 300 mM lithium sulfate, 100 mM ADA pH 6.5, 30% PEG400, dextran sulfate additive; space group C222_(1), four monomers in the asymmetric unit; 3.5 Å
[2] = molecular target: untagged-cpAQP1aa-243 (C-terminally truncated aquaporin 1aa from Anabas testudineus, climbing perch) (Anabas testudineus (climbing perch)); assay: crystal structure; untagged-cpAQP1aa-243, hanging-drop vapor diffusion, 4°C; reservoir 100 mM Tris-HCl pH 7.8, 5% γ-PGA, 30% PEG400, D-sorbitol additive; space group P42_(1)2, one monomer in the asymmetric unit; 1.9 Å

untagged-cpAQP1aa-243 (C-terminally truncated aquaporin 1aa from Anabas testudineus, climbing perch) (domain or fragment)
stoichiometry N [1]: 4 | stoichiometry N [2]: 4
